Measurements taken from US12371675B2, “Process and microorganism for synthesis of adipic acid from carboxylic acids” (THE GOVERNING COUNCIL OF THE UNIVERSITY OF TORONTO, priority 2015, dated 2025).

B1: Sinorhizobium meliloti aminotransferase SM2011_b20379, SEQ ID NO: 59 (Sinorhizobium meliloti 1021) (protein)
chain: MNDRPNSLHALDKQSLVHPYTNLAVHQETGPHVITGGDGIYVVDDEGKRYIEGLAGLFCAGLGFSEQRLVEAATRQLKTMPFYHSFAHKSTEPGIRLAEKLLSIAPVPMSKVFFAGSGSEANDTAIKLIWYYNNALGRPEKKKIISRRKAYHGVTVATASLTGLPFNHRDFDLPIANILHTDCPHYWRFAETGETEEDFATRMANNLEAIILEEGPETIAAFFAEPVMVSGGVITPPKTYFEKVQAVLRKYDILLIADEVICGFGRTGNMFGSETYGLKPDMISCAKQLSAAYMPISALMINAKIADALVDQSRKIGTFSHGFTYGGHPVAAAVALEALTIYEEIDIVGHVRSVAPAFQDRVRKLGEHPLIGEARGVGLVAGLEFVKDKATRENFPPAWQVANQAGKFATARGVLTRGLGDMVSLCPAMIIDDEQIDDLMTRMGLALDDTLAWARAQGHVG
B2: Sinorhizobium meliloti aminotransferase SM2011_c04388, SEQ ID NO: 58 (Sinorhizobium meliloti 1021) (protein)
chain: MNAHNKPNAPVLDSYWMPFTANRQFKAAPRLLAAAEGMHYTSVDGRTVLDGTAGLWCVNAGHGRRQIAAAVERQLSTMDFAPSFQMGHPIAFDFAERLAEIAPGPAGAKLDRVFFTGSGSESVDTALKMALAYQRSIGQGTRTRLIGRERGYHGVGFGGISVGGIVNNRRVFPQLPGSDHLRHTHDPAKNAFVKGQPEHGAELADDLERLVALHGAETIAACIVEPVAGSTGVLIPPKGYLERLRAICDKHGILLIFDEVITGFGRLGAAFATDYFGVTPDIVTTAKGLTNGAIPMGAVFASRKVHDALMHGPEGQIELFHGYTYSGHPAACAAGIATLDIYRDEGLMTRAAEIEGDWHEAMHSMKGLPHVIDIRTIGLIAGIELQSRDGAPGARAYDVFVDCFERGLLIRVTGDIIAFSPPLIAEKQHFGEIVSILADALKRVK
B3: Mycobacterium smegmatis carboxylate reductase MSMEI_5586, SEQ ID NO: 35 (Mycolicibacterium smegmatis MC2 155) (protein)
chain: MHQLTVTGMNICEVQRLFPRMTSDVHDATDGVTETALDDEQSTRRIAELYATDPEFAAAAPLPAVVDAAHKPGLRLAEILQTLFTGYGDRPALGYRARELATDEGGRTVTRLLPRFDTLTYAQVWSRVQAVAAALRHNFAQPIYPGDAVATIGFASPDYLTLDLVCAYLGLVSVPLQHNAPVSRLAPILAEVEPRILTVSAEYLDLAVESVRDVNSVSQLVVFDHHPEVDDHRDALARAREQLAGKGIAVTTLDAIADEGAGLPAEPIYTADHDQRLAMILYTSGSTGAPKGAMYTEAMVARLWTMSFITGDPTPVINVNFMPLNHLGGRIPISTAVQNGGTSYFVPESDMSTLFEDLALVRPTELGLVPRVADMLYQHHLATVDRLVTQGADELTAEKQAGAELREQVLGGRVITGFVSTAPLAAEMRAFLDITLGAHIVDGYGLTETGAVTRDGVIVRPPVIDYKLIDVPELGYFSTDKPYPRGELLVRSQTLTPGYYKRPEVTASVFDRDGYYHTGDVMAETAPDHLVYVDRRNNVLKLAQGEFVAVANLEAVFSGAALVRQIFVYGNSERSFLLAVVVPTPEALEQYDPAALKAALADSLQRTARDAELQSYEVPADFIVETEPFSAANGLLSGVGKLLRPNLKDRYGQRLEQMYADIAATQANQLRELRRAAATQPVIDTLTQAAATILGTGSEVASDAHFTDLGGDSLSALTLSNLLSDFFGFEVPVGTIVNPATNLAQLAQHIEAQRTAGDRRPSFTTVHGADATEIRASELTLDKFIDAETLRAAPGLPKVTTEPRTVLLSGANGWLGRFLTLQWLERLAPVGGTLITIVRGRDDAAARARLTQAYDTDPELSRRFAELADRHLRVVAGDIGDPNLGLTPEIWHRLAAEVDLVVHPAALVNHVLPYRQLFGPNVVGTAEVIKLALTERIKPVTYLSTVSVAMGIPDFEEDGDIRTVSPVRPLDGGYANGYGNSKWAGEVLLREAHDLCGLPVATFRSDMILAHPRYRGQVNVPDMFTRLLLSLLITGVAPRSFYIGDGERPRAHYPGLTVDFVAEAVTTLGAQQREGYVSYDVMNPHDDGISLDVFVDWLIRAGHPIDRVDDYDDWVRRFETALTALPEKRRAQTVLPLLHAFRAPQAPLRGAPEPTEVFHAAVRTAKVGPGDIPHLDEALIDKYIRDLREFGLI

Tests used:
[1] = substrate: O=CCCCCC=O; assay: AT kinetics, coupled with alanine and glutamate dehydrogenases; format: biochemical, Sinorhizobium meliloti; conditions: other: amino-donor Ala/Glu; pH 7.5
Procedure: 28 PLP-dependent aminotransferases (from the classes I, II and III) were cloned and overexpressed in E. coli (Table 6). Enzymes were purified using affinity chromatography on a Ni-NTA resin and were screened for […] activity towards adipaldehyde using alanine and glutamate as amino-donors. Enzyme activity was measured spectrophotometrically using a coupled reaction with the NADPH/NADH-dependent alanine and glutamate dehydrogenases in the presence of excess of ammonium chloride.
Reaction was monitored by following the decrease in absorbance of NAD(P)H to NAD(P)+ at 340 nm (ε340 nm=6,220/M·cm). Coupled enzymes can aminate pyruvate/ketoglutarate produced by ATs in excess of NH4Cl.

[2] = substrate: O=C(O)CCCCCO; assay: purified protein, by the assay type; conditions: other: ATP/NADPH dependent reduction; pH 7.5

| Protein | Km [1] [mM] | kcat [1] [s⁻¹] | kcat/Km [1] | Km [2] [mM] | kcat [2] [s⁻¹] | kcat/Km [2] [M⁻¹ s⁻¹] |
| --- | --- | --- | --- | --- | --- | --- |
| B1 | 0.32 ± 0.10 | 0.26 ± 0.05 | (8.08 ± 1.52) × ×10^2 M^−1 · s^−1 |  |  |  |
| B2 | 8.58 ± 3.34 |  |  |  |  |  |
| B3 |  |  |  | 16.2 ± 2.11 | 1.2 ± 0.07 | 74.2 ± 4.05 |
